Here are results for 5 substances from article PMC5724361 (ACS chemical biology, 2017).

Assay [1] addresses T1, Aβ1–40 (Homo sapiens, UniProt P05067). Kind of assay: IM-MS analysis of complex formation with Aβ1–40. It counts as binding. The conditions noted are these: alanine substituted variants of leucine enkephalin.
The next assay concerns Aβ. The conditions noted are these: incubated in excess with leucine enkephalin, compared with control; cited from earlier work.
The target of assay [2] is T1, Aβ1–40. The conditions noted are these: cited from earlier work.

T1 sequence (P05067 672-711 limits assumed): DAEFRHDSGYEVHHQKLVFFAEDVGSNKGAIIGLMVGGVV

For the substance “YGAFL: alanine substituted variant of leucine enkephalin (Leu-enkephalin; UniProt P01210 230-234, looked up, variant G3A)”, the “Complex formation with Aβ1–40 (IM-MS signal)” value (shortened to “Complex formation”) in the assay with Aβ1–40 [1] was “complexes formed”.
Regarding Leucine enkephalin acetate hydrate, the “Aβ fibrillation (TEM and gel)” value with Aβ is given as “decreased Aβ fibrillation”. Also, at Aβ1–40 [2], the “Stoichiometric ratios of Aβ:leucine enkephalin complexes” value was 1:1 to 1:3, and from 2:1 to 2:3.
With “YGGAL: alanine substituted variant of leucine enkephalin (Leu-enkephalin; UniProt P01210 230-234, looked up, variant F4A)”, the “Complex formation” value in the assay with Aβ1–40 [1] is reported as “no measureable complex signals”.
With “YGGFA: alanine substituted variant of leucine enkephalin (Leu-enkephalin; UniProt P01210 230-234, looked up, variant L5A)”, the “Complex formation” value in the assay with Aβ1–40 [1] was “no measureable complex signals”.
Still for that read-out and setting: the value for “AGGFL: alanine substituted variant of leucine enkephalin (Leu-enkephalin; UniProt P01210 230-234, looked up, variant Y1A)” was “complexes formed”.
